{"source": "patent US6033903", "about": "“Method of expressing and secreting soluble extracellular domains of human gonadotropin hormone receptors” (Applied Research Systems, Ars Holding N.V., dated 2000)", "target": "human follicle stimulating hormone (recombinant hFSH) (human, UniProt P01215, ^125 I label on the tracer form (which chain and residue is not stated); unlabelled in the cold competitor, the affinity resin and the cell assay)", "assay": "125I-hFSH radioligand binding, summary of Example 2", "data": [{"binder": "soluble hFSHR-EC secreted from baculovirus-infected insect cells (gp67 signal peptide fusion, pAcGP67-hFSHR-EC) (receptor) ADQCHHRICHCSNRVFLCQESKVTEIPSDLPRNAIELRFVLTKLRVIQKGAFSGFGDLEKIEISQNDVLEVIEADVFSNLPKLHEIRIEKANNLLYINPEAFQNLPNLQYLLISNTGIKHLPDVHKIHSLQKVLLDIQDNINIHTIERNSFVGLSFESVILWLNKNGIQEIHNCAFNGTQLDELNLSDNNNLEELPNDVFHGASGPVILDISRTRIHSLPSYGLENLKKLRARSTYNLKKLPTLEKLVALMEASLTYPSHCCAFANWRRQISELHPICNKSILRQEVDYMTQTRGQRSSLAEDNESSYSRGFDMTYTEFDYDLCNEVVDVTCSPKPDAFNPCEDIMGYNILR", "values": [{"measurement": "binding result", "result": "binds"}]}]}
